Here are results for five molecules from patent publication US20240247072A1 (KEYMED BIOSCIENCES, published 2024).

The target in test [1] is T1, cynomolgus monkey CD70, full length, on CHO cells (CHO-monkey CD70-D01) (cynomolgus monkey, UniProt A0A2K5WTU9 1-190).
T1 construct: whole, on cells; Stably transfected CHO cells; also called CHO-cynomolgus monkey CD70
T1 sequence: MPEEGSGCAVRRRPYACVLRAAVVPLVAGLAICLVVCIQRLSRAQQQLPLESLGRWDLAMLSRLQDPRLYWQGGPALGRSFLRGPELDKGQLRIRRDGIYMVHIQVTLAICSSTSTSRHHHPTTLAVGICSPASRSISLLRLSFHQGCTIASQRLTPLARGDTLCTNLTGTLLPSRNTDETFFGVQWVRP
Put plainly: flow cytometry, Fab on CHO-cynomolgus CD70 cells. The protocol:
(§1) The blank control cell CHO and stably-transfected cell line CHO-CD70 were prepared and added at 5×10⁴ cells/well into a 96-well plate respectively. 50 μL of Fab antibodies with different dilution gradients were added into each well and incubated at 4° C. for 60 minutes. The centrifuge was performed to discard the supernatant. The plate was washed with 0.5% BSA/PBS and added with 50 μL of a secondary antibody solution (Anti-human IgG F (ab′) 2-AF647, Jackson Immuno Research) and incubated at 4° C. for 45 minutes. The excess secondary antibody was washed off with 0.5% BSA. The PBS solution was added to resuspend cells for flow cytometry. The data was collected.

The target of test [2] is T2, recombinant trimeric protein of human CD70 extracellular region (human CD70 mIgG Fc (knob) / mouse IgG Fc … (human, UniProt P01863 98-330 = IgG part)).
T2 construct: The ELISA and Octet texts say only 'recombinant CD70 protein' / 'CM352 antigen'; also called recombinant human CD70 protein; recombinant CD70 protein
T2 chain 1: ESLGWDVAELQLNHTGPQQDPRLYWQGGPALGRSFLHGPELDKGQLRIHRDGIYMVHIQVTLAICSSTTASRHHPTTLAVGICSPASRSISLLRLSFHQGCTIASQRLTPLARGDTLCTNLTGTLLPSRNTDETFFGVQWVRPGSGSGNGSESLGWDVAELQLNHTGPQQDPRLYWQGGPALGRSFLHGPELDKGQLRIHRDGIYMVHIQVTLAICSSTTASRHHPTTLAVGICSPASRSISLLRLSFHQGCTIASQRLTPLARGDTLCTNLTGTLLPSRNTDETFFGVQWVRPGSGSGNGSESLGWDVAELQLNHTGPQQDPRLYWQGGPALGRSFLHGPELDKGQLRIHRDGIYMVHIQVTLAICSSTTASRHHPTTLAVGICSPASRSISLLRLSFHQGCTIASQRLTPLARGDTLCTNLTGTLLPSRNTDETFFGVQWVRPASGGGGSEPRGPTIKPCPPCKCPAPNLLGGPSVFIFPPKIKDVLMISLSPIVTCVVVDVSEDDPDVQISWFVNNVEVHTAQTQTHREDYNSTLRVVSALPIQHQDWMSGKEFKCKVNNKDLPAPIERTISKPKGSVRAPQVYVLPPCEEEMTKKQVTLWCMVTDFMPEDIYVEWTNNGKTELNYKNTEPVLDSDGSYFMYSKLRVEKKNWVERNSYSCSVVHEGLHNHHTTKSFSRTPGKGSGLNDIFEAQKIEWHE
T2 chain 2: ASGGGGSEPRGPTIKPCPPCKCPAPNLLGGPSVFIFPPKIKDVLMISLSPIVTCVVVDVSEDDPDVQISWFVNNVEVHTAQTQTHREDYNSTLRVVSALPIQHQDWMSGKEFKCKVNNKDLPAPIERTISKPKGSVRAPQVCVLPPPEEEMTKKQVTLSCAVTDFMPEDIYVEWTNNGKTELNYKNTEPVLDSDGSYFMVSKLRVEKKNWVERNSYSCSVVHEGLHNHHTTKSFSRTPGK
In words: BLI (Octet), biotin antigen on SA probe, Fab in solution.

For test [3], the target named is T3, human CD70, full length, on CHO cells (CHO-human CD70-B07) (human, UniProt P32970 1-193).
T3 construct: whole, on cells; Stably transfected CHO cells; also called CHO-CD70
T3 sequence (looked up): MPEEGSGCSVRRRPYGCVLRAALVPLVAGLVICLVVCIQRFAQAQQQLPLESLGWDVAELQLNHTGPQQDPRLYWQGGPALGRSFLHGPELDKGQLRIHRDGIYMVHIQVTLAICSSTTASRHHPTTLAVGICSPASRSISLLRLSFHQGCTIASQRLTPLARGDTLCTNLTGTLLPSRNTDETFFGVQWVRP
In words: flow cytometry, Fab on CHO-human CD70 cells. How it is done: as §1

The target of test [4] is T2, recombinant trimeric protein of human …. In words: competition ELISA, Fab titrated, human CD27 coated, biotin-CD70. The protocol: (§2) The next day, the plate was washed 3 times with PBS, added with 200 μL of 2% defatted dry milk/PBS, blocked at room temperature for 2 hours, and washed once with PBS, 50 μL of different dilution gradients of Fab antibodies were added and incubated at room temperature for 30 minutes. […] The plate was washed 3 times with PBST and PBS and dried by spinning. A secondary antibody solution Streptavidin-coupled horseradish peroxidase SA-HRP (BD bioscience, Cat. No: 6222697) was diluted with 0.5% BSA in a ratio of 1:8000. 100 μl of the diluent was added into each well and incubate at room temperature for 30 minutes. The plate was washed 3 times with PBST and PBS and dried by spinning. 100 μl of the color development solution (TMB solution, Sigma, Cat. No: T2885) was added into each well and protected from light at 37° C. for reaction. After the substrate developed moderately, 50 μl of 2M concentrated sulfuric acid solution was added into each well to terminate the reaction. The OD450 nm was determined by using an enzyme-linked detector within 30 minutes, and the data was collected.

Test [5] addresses T4, recombinant cynomolgus monkey CD70 protein (cynomolgus monkey, UniProt A0A2K5WTU9 39-190).
T4 construct: it stands only in column heads ('Monkey', 'Cynomolgus Monkey CD70/CD27') and in result sentences; also called Monkey (ELISA)
T4 sequence: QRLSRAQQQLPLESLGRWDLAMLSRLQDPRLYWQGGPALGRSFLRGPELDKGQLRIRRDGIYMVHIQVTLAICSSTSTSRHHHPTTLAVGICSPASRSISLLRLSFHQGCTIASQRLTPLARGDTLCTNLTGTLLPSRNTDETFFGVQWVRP
In words: competition ELISA, Fab titrated, cynomolgus CD27 coated, biotin-CD70. How it is done:
as §2

Test [6] has as its target T1, cynomolgus monkey CD70, full length, on …. In words: flow cytometry, humanized IgG1 on CHO-cynomolgus monkey CD70 cells. How it is done:
(§3) The supernatant was discarded and the cells were gently tapped to be loosening. 50 μL of gradient diluted antibodies were added (antibody concentration: from 30 μg/mL, 3-fold dilution for 8 gradients) per well, and incubated at 4° C. for 1 hour. After incubation, 200 μL of 0.5% BSA was added to each well for washing 3 times. 50 μL/well of secondary antibody Alexa Fluro647 anti-human IgG (Jackson ImmunoResearch, Cat. No: 109-606-170) was added and incubated at 4° C. for 45 minutes. At the end of the incubation, each well was washed 3 times with 180 μL of 0.5% BSA and finally resuspended in 50 μL of PBS for iQue (Intellicyt) assay.

For test [7], the target named is T4, recombinant cynomolgus monkey CD70 …. Put plainly: competition ELISA, humanized IgG1 titrated, CD27 coated, biotin-CD70, cynomolgus pair.
For test [8], the target named is T2, recombinant trimeric protein of human …. Put plainly: competition ELISA, humanized IgG1 titrated, CD27 coated, biotin-CD70, human pair. The protocol:
The recombinant human CD27 protein was coated at 1 μg/mL in a 96-well microtiter plate and incubated overnight at 4° C. The next day, the plate was washed 3 times with PBS, added with 200 μL of 2% defatted dry milk/PBS, blocked at room temperature for 2 hours, and washed once with PBS. […] 30 μl of the antibody was added per well and incubated at room temperature for 30 minutes. […] The plate was washed 3 times with PBST and PBS and dried by spinning. A secondary antibody solution Streptavidin-coupled horseradish peroxidase SA-HRP (BD bioscience, Cat. No: 6222697) was diluted with 0.5% BSA in a ratio of 1:8000. 100 μL of the diluent was added into each well and incubated at room temperature for 30 minutes. The plate was washed 3 times with PBST and PBS and dried by spinning. […] of color development solution (TMB solution, Sigma, Cat. No: T2885) was added into each well and protected from light at 37° C. for reaction. After the substrate developed moderately, […] of H₂SO₄ was added into each well to terminate the reaction. The OD450 nm was determined using an enzyme-linked detector within 30 minutes, and the data was collected. The results were calculated by using Graph Pad Prism 5 software. See FIG. 10-1, 10-2, and Table 12 for the results.

The target of test [9] is T3, human CD70, full length, on CHO cells …. Put plainly: flow cytometry, humanized IgG1 on CHO-human CD70 cells. How it is done: as §3
Test [10] deals with T2, recombinant trimeric protein of human …. In words: cell-based or functional assay.

Residue numbers refer to the chain shown, from its start.

B1: 26G11 Fab antibody (Fab, V domains shown)
VH: QVQLQQSGPELVKPGASVKISCKTSGYTFADYTMHWVRQSQGKSLEWIGDIYPNDGGPNNNQKFKDKATLTVDKSSSTAYMELRSLTSEDSAVYYCARPFYYGNYAGFAFWGQGTLVTVSA
VL: EMVLTQSPAIMSASPGEKVTMTCSASSSVSYMYWYQQKPGSSPRLLIYDTSNLASGVPVRFSGSGSGTSYSLTISRMEAEDAATYYCQQWSSYPLTFGAGTRLEIK
notes: Purified Fab from the mouse Fab phage display library
As to B1, the values for the EC50 in test [1] and in [3] were 49.7 nM and 40.7 nM, respectively. Also, the koff in test [2] turned out to be 0.000287 s⁻¹. The IC50 in test [4] was 4.82 nM; in [5], 4.36 nM.

B2: 25H7 Fab antibody (Fab, V domains shown)
VH: EIQLVQSGPELKKPGETVKISCKASGYTFTNYGMNWVKQTPGKGLKWMGWINTDTGEPTYADDFKGRFAFSLETSASTAYLQINNLKNEDMATYFCAREEDYRYVFNYWGQGTTLTVSS
VL: DIQMTQTTSSLSASLGDRVTISCRASQDISNYLNWYQQKPDGTVKLLIYYTSRLHSGVPSRFSGSGSGTDYSLTISNLEQEDIATYFCQQGVTLPLTFGAGTKLELK
notes: as for B1
B2: the EC50 in [1] came out at 23.4 nM; in [3], 15.5 nM. Also, in test [2], the koff is 0.000326 s⁻¹. The IC50 in test [4] worked out at 0.76 nM; in test [5], 14.4 nM.

B3: 39H5 Fab antibody (Fab, V domains shown)
VH: B2 VH with T40A, K43Q, D54Y, K65T, T93A
VL: B2 VL with T5I, T7S, D17N, Y50D, S56A, L106I
notes: as for B1
On to B3, for which the EC50 in test [1] came to 10.2 nM; in test [3], 8.7 nM. Further, the koff in test [2] is 9e-05 s⁻¹. Also, the IC50 in test [4] was determined as 0.38 nM; in test [5], 0.37 nM.

B4: humanized antibody Ab001 (antibody, human IgG1, V domains shown)
VH: QIQLVQSGSELKKPGASVKVSCKASGYTFTNYGMNWVRQAPGQGLEWMGWINTYTGEPTYADGFTGRFVFSLDTSASTAYLQISSLKAEDTAVYFCAREEDYRYVFNYWGQGTLVTVSS
VL: DIQMTQSPSSLSASVGDRVTITCQASQDISNYLNWYQQKPGKAPKLLIYDTSRLHAGVPSRFSGSGSGTDYTFTISSLQPEDIATYFCQQGVTLPLTFGQGTKLEIK
notes: also called h39H5 VHv1 + h39H5 VKv1
In the case of B4, the figures for the EC50 in [6] and in test [9] were 5.78 nM and 2 nM, respectively. In addition, the IC50 in test [7] came to 0.05 nM; in [8], 0.04 nM. Besides, the “Inhibition of IL-8 secretion IC50(nM), HT1080-human CD27 cells stimulated with recombinant human CD70” value in [10] was found to be 10.7 nM.

B5: humanized antibody Ab007 (antibody, human IgG1, V domains shown)
VH: B4 VH with I2V, F95Y
VL: B4 VL
notes: also called Ab007 IgG1; h39H5 VHv3 + h39H5 VKv1
Regarding B5, the EC50 in test [6] was found to be 3.14 nM; in test [9], 2.57 nM. Also, the IC50 came out at 0.05 nM in test [7] and 0.04 nM in test [8]. Further, in [10], the “Inhibition of IL-8 secretion IC50(nM), HT1080-human CD27 cells stimulated with recombinant human CD70” value was 9.92 nM.
